Test results as given in the supplement of paper PMC5998384.

Legend:
HeLa Kyoto [1] = experiment: melting temperature (median over replicates), in situ; higher = more thermally stable
HeLa Kyoto [2] = experiment: solubility in G1/S (NP-40 vs SDS abundance) (log2 ratio); higher = more soluble; conditions: cell cycle stage: G1/S
HeLa Kyoto [3] = experiment: solubility change mitosis vs G1/S (difference of NP-40 vs SDS log2 ratios) (log2 ratio difference); higher = more soluble in mitosis
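For melting temperature (median over replicates), in situ in this document: HeLa Kyoto cells synchronized by double thymidine or nocodazole block, proteins quantified by TMT10plex mass spectrometry, three independent biological replicates.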
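For solubility change mitosis vs G1/S (difference of NP-40 vs SDS log2 ratios) in this document: synchronized HeLa Kyoto cells (double thymidine block for G1/S, nocodazole release for mitosis), protein amounts in NP-40 versus SDS lysates quantified by mass spectrometry, three biological replicates.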
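For solubility in G1/S (NP-40 vs SDS abundance) in this document: HeLa Kyoto cells arrested at G1/S by double thymidine block, proteins quantified by TMT10plex mass spectrometry in mild NP-40 versus SDS extracts, three biological replicates.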

Row | Substance | melting temperature (HeLa Kyoto [1]; cell cycle stage: G1/S) [°C] | melting temperature (HeLa Kyoto [1]; cell cycle stage: mitosis) [°C] | solubility in G1/S (log2) (HeLa Kyoto [2]) | solubility change mitosis (log2) (HeLa Kyoto [3])
1 | MSVHYTLNLRVFWPLVTGLCTALVCLYHVLRGSGGARAEPADGVDGGFPLLKVAVLLLLSYVLLRCRHAVRQRFLPGSPRLEGHAAFSSRHFREPGLSILLESYYEHEVRLSPHVLGHSKAHVSRIVGELVRAGRARGSPGLIPGGALALAFRGDFIQVGSAYEQHKIRRPDSFDVLVPLRLPPLVALEPRSLGEEPALAPAFRGCFLCALKAPPSPSGASGGHWLRDCKPFADAFCVDVRGRRHLSATLVLRWFQSHLQRSLATVRYSLEGRCRVTLTPGGLEQPPTLHILPCRTDYGCCRLSMAVRLIPAVHLGDGVFLVAPPPPPLPSAPLLELPEGLRAEALWGVNTARQEQKLLSWLQERAAPGACYLKCLQLLKALRDLGARGLDSAAATQWGRILSSYVLKTVLLAVLLRKGAPGQGWDEEHLGRCLEELVQFLRDCLLRRHTLFHCVLGPGGAAAEVGPLPKALREAAPVDLLAAFDGHARELAAARLLSTWQRLPQLLRAYGGPRYLARCPPPRSQRTQGFLEGEP [ITPRIPL2] | 53.8 | 55.4 | -0.164 | 0.00884
2 | MALAGCPDSFLHHPYYQDKVEQTPRSQQDPAGPGLPAQSDRLANHQEDDVDLEALVNDMNASLESLYSACSMQSDTVPLLQNGQHARSQPRASGPPRSIQPQVSPRQRVQRSQPVHILAVRRLQEEDQQFRTSSLPAIPNPFPELCGPGSPPVLTPGSLPPSQAAAKQDVKVFSEDGTSKVVEILADMTARDLCQLLVYKSHCVDDNSWTLVEHHPHLGLERCLEDHELVVQVESTMASESKFLFRKNYAKYEFFKNPMNFFPEQMVTWCQQSNGSQTQLLQNFLNSSSCPEIQGFLHVKELGKKSWKKLYVCLRRSGLYCSTKGTSKEPRHLQLLADLEDSNIFSLIAGRKQYNAPTDHGLCIKPNKVRNETKELRLLCAEDEQTRTCWMTAFRLLKYGMLLYQNYRIPQQRKALLSPFSTPVRSVSENSLVAMDFSGQTGRVIENPAEAQSAALEEGHAWRKRSTRMNILGSQSPLHPSTLSTVIHRTQHWFHGRISREESHRIIKQQGLVDGLFLLRDSQSNPKAFVLTLCHHQKIKNFQILPCEDDGQTFFSLDDGNTKFSDLIQLVDFYQLNKGVLPCKLKHHCIRVAL [GRB10] | 48.1 | 49.1 | 0.159 | -0.231
3 | MISRHLQNNLMSVDPASSQAMELSDVTLIEGVGNEVMVVAGVVVLILALVLAWLSTYVADSGSNQLLGAIVSAGDTSVLHLGHVDHLVAGQGNPEPTELPHPSEGNDEKAEEAGEGRGDSTGEAGAGGGVEPSLEHLLDIQGLPKRQAGAGSSSPEAPLRSEDSTCLPPSPGLITVRLKFLNDTEELAVARPEDTVGALKSKYFPGQESQMKLIYQGRLLQDPARTLRSLNITDNCVIHCHRSPPGSAVPGPSASLAPSATEPPSLGVNVGSLMVPVFVVLLGVVWYFRINYRQFFTAPATVSLVGVTVFFSFLVFGMYGR [TMUB2] | 55 | 54 | 0.229 | -0.108
4 | ASAP2 | 50.7 | 51.4 | 0.122 | -0.37
5 | MPGGCSRGPAAGDGRLRLARLALVLLGWVSSSSPTSSASSFSSSAPFLASAVSAQPPLPDQCPALCECSEAARTVKCVNRNLTEVPTDLPAYVRNLFLTGNQLAVLPAGAFARRPPLAELAALNLSGSRLDEVRAGAFEHLPSLRQLDLSHNPLADLSPFAFSGSNASVSAPSPLVELILNHIVPPEDERQNRSFEGMVVAALLAGRALQGLRRLELASNHFLYLPRDVLAQLPSLRHLDLSNNSLVSLTYVSFRNLTHLESLHLEDNALKVLHNGTLAELQGLPHIRVFLDNNPWVCDCHMADMVTWLKETEVVQGKDRLTCAYPEKMRNRVLLELNSADLDCDPILPPSLQTSYVFLGIVLALIGAIFLLVLYLNRKGIKKWMHNIRDACRDHMEGYHYRYEINADPRLTNLSSNSDV [TPBG] | 53.4 | 53.4 | 0.234 | 0.104
6 | MGEDAAQAEKFQHPGSDMRQEKPSSPSPMPSSTPSPSLNLGNTEEAIRDNSQVNAVTVLTLLDKLVNMLDAVQENQHKMEQRQISLEGSVKGIQNDLTKLSKYQASTSNTVSKLLEKSRKVSAHTRAVKERMDRQCAQVKRLENNHAQLLRRNHFKVLIFQEENEIPASVFVKQPVSGAVEGKEELPDENKSLEETLHTVDLSSDDDLPHDEEALEDSAEEKVEESRAEKIKRSSLKKVDSLKKAFSRQNIEKKMNKLGTKIVSVERREKIKKSLTSNHQKISSGKSSPFKVSPLTFGRKKVREGESHAENETKSEDLPSSEQMPNDQEEESFAEGHSEASLASALVEGEIAEEAAEKATSRGSNSGMDSNIDLTIVEDEEEESVALEQAQKVRYEGSYALTSEEAERSDGDPVQPAVLQVHQTS [SDPR] | 53.9 | 53.4 | -0.0681 | 0.043
7 | MSLVIRNLQRVIPIRRAPLRSKIEIVRRILGVQKFDLGIICVDNKNIQHINRIYRDRNVPTDVLSFPFHEHLKAGEFPQPDFPDDYNLGDIFLGVEYIFHQCKENEDYNDVLTVTATHGLCHLLGFTHGTEAEWQQMFQKEKAVLDELGRRTGTRLQPLTRGLFGGS [YBEY] | 45.4 | 49.7 | -0.21 | 0.0965
8 | MAPERLRSRALSAFKLRGLLLRGEAIKYLTEALQSISELELEDKLEKIINAVEKQPLSSNMIERSVVEAAVQECSQSVDETIEHVFNIIGAFDIPRFVYNSERKKFLPLLMTNHPAPNLFGTPRDKAEMFRERYTILHQRTHRHELFTPPVIGSHPDESGSKFQLKTIETLLGSTTKIGDAIVLGMITQLKEGKFFLEDPTGTVQLDLSKAQFHSGLYTEACFVLAEGWFEDQVFHVNAFGFPPTEPSSTTRAYYGNINFFGGPSNTSVKTSAKLKQLEEENKDAMFVFLSDVWLDQVEVLEKLRIMFAGYSPAPPTCFILCGNFSSAPYGKNQVQALKDSLKTLADIICEYPDIHQSSRFVFVPGPEDPGFGSILPRPPLAESITNEFRQRVPFSVFTTNPCRIQYCTQEITVFREDLVNKMCRNCVRFPSSNLAIPNHFVKTILSQGHLTPLPLYVCPVYWAYDYALRVYPVPDLLVIADKYDPFTTTNTECLCINPGSFPRSGFSFKVFYPSNKTVEDSKLQGF [POLE2] | 50 | 49.6 | 0.148 | -0.129
9 | MAAAPQAPGRGSLRKTRPLVVKTSLNNPYIIRWSALESEDMHFILQTLEDRLKAIGLQKIEDKKKKNKTPFLKKESREKCSIAVDISENLKEKKTDAKQQVSGWTPAHVRKQLAIGVNEVTRALERRELLLVLVCKSVKPAMITSHLIQLSLSRSVPACQVPRLSERIAPVIGLKCVLALAFKKNTTDFVDEVRAIIPRVPSLSVPWLQDRIEDSGENLETEPLESQDRELLDTSFEDLSKPKRKLADGRQASVTLQPLKIKKLIPNPNKIRKPPKSKKATPK [RPP38] | 53.1 | 51.7 | 0.342 | -0.0549
10 | MGLFGKTQEKPPKELVNEWSLKIRKEMRVVDRQIRDIQREEEKVKRSVKDAAKKGQKDVCIVLAKEMIRSRKAVSKLYASKAHMNSVLMGMKNQLAVLRVAGSLQKSTEVMKAMQSLVKIPEIQATMRELSKEMMKAGIIEEMLEDTFESMDDQEEMEEEAEMEIDRILFEITAGALGKAPSKVTDALPEPEPPGAMAASEDEEEEEEALEAMQSRLATLRS [CHMP3] | 51.4 | 51 | 0.866 | -0.0644
11 | MVNPGSSSQPPPVTAGSLSWKRCAGCGGKIADRFLLYAMDSYWHSRCLKCSCCQAQLGDIGTSCYTKSGMILCRNDYIRLFGNSGACSACGQSIPASELVMRAQGNVYHLKCFTCSTCRNRLVPGDRFHYINGSLFCEHDRPTALINGHLNSLQSNPLLPDQKVC [LMO4] | 52.8 | – | -0.938 | -0.0181
12 | MSGSVLFTAGERWRCFLTPSRSSLYWALHNFCCRKKSTTPKKITPNVTFCDENAKEPENALDKLFSSEQQASILHVLNTASTKELEAFRLLRGRRSINIVEHRENFGPFQNLESLMNVPLFKYKSTVQVCNSILCPKTGREKRKSPENRFLRKLLKPDIERERLKAVNSIISIVFGTRRIAWAHLDRKLTVLDWQQSDRWSLMRGIYSSSVYLEEISSIISKMPKADFYVLEKTGLSIQNSSLFPILLHFHIMEAMLYALLNKTFAQDGQHQVLSMNRNAVGKHFELMIGDSRTSGKELVKQFLFDSILKADPRVFFPSDKIVHYRQMFLSTELQRVEELYDSLLQAIAFYELAVFDSQP [TEFM] | 50.9 | 49.1 | -0.375 | 0.119
13 | MNRVNDPLIFIRDIKPGLKNLNVVFIVLEIGRVTKTKDGHEVRSCKVADKTGSITISVWDEIGGLIQPGDIIRLTRGYASMWKGCLTLYTGRGGELQKIGEFCMVYSEVPNFSEPNPDYRGQQNKGAQSEQKNNSMNSNMGTGTFGPVGNGVHTGPESREHQFSHAGRSNGRGLINPQLQGTASNQTVMTTISNGRDPRRAFKR [NABP1] | – | 50.7 | 0.0163 | -0.222
